Tested on: EcR-293 cells
Test: DNA microarray on EcR-293 cells overexpressing MKL1 isoforms
Type: cell-based, human
Conditions: for ACTA2 fold change vs. control / ADAM21 fold change vs. control / AMBN fold change vs. control / CNN2 fold change vs. control / DSEL fold change vs. control / ESRRG fold change vs. control / MKL1 (total) fold change vs. control / MMP16 fold change vs. control / NAP1L3 fold change vs. control / OSTN fold change vs. control / PDGFD fold change vs. control / ROCK1P1 fold change vs. control / RORB fold change vs. control / SLC8A1 fold change vs. control / SPOCK3 fold change vs. control: vs empty pcDNA3 vector
Method: DNA microarray EcR-293 cells stably transfected with 1) the empty pcDNA3 vector, 2) 5′UTR-MKL_L, 3) 5′UTR-MKL_S were grown in triplicates. For “untreated” samples, total RNA was extracted from cells in D-MEM/10% FBS. “LPA treated” cells were starved for 16 h in D-MEM/0.3% FBS and subsequently treated with 50 μm LPA for 20 min. RNA was extracted 4 h after treatment. RNA was converted into labeled cRNA and hybridized to Affymetrix Human Gene 1.0 arrays (Affymetrix, Santa Clara, Calif., USA). The procedure for the microarray analysis was as previously described (4). Differences in gene expression were calculated for 2) vs. 1), 3) vs. 1), and 3) vs. 2). • (1) Miralles F et al., Cell, Volume 113, Issue 3, May 2003, 329-342 • (2) Maier S et al., Biochimica et Biophysica Acta (BBA)—Molecular Cell Research, Volume 1783, Issue 6, June 2008, 1150-1162 • (3) Martina et al., The FASEB Journal, Volume 24, Issue 3, March 2010, 778-787 • (4) Asparuhova et al., The FASEB Journal, Volume 25, Issue 10, October 2011, 3477-3488

B1: MKL_S: novel short isoform of human MKL1 (SEQ ID NO:1), stably overexpressed in EcR-293 cells from construct 5′UTR-MKL_S (protein, listed as Homo sapiens)
chain: MTLLEPEMLMMAVQSVLQLKLQQRRTREELVSQGIMPPLKSPAAFHEQRRSLERARTEDYLKRKIRSRPERSELVRMHILEETSAEPSLQAKQLKLKRARLADDLNEKIAQRPGPMELVEKNILPVESSLKEAIIVGQVNYPKVADSSSFDEDSSDALSPEQPASHESQGSVPSPLEARVSEPLLSATSASPTQVVSQLPMGRDSREMLFLAEQPPLPPPPLLPPSLTNGTTIPTAKSTPTLIKQSQPKSASEKSQRSKKAKELKPKVKKLKYHQYIPPDQKQDRGAPPMDSSYAKILQQQQLFLQLQILNQQQQQHHNYQAILPAPPKSAGEALGSSGTPPVRSLSTTNSSSSSGAPGPCGLARQNSTSLTGKPGALPANLDDMKVAELKQELKLRSLPVSGTKTELIERLRAYQDQISPVPGAPKAPAATSILHKAGEVVVAFPAARLSTGPALVAAGLAPAEVVVATVASSGVVKFGSTGSTPPVSPTPSERSLLSTGDENSTPGDTFGEMVTSPLTQLTLQASPLQILVKEEGPRAGSCCLSPGGRAELEGRDKDQMLQEKDKQIEALTRMLRQKQQLVERLKLQLEQEKRAQQPAPAPAPLGTPVKQENSFSSCQLSQQPLGPAHPFNPSLAAPATNHIDPCAVAPGPPSVVVKQEALQPEPEPVPAPQLLLGPQGPSLIKGVAPPTLITDSTGTHLVLTVTNKNADSPGLSSGSPQQPSSQPGSPAPAPSAQMDLEHPLQPLFGTPTSLLKKEPPGYEEAMSQQPKQQENGSSSQQMDDLFDILIQSGEISADFKEPPSLPGKEKPSPKTVCGSPLAAQPSPSAELPQAAPPPPGSPSLPGRLEDFLESSTGLPLLTSGHDGPEPLSLIDDLHSQMLSSTAILDHPPSPMDTSELHFVPEPSSTMGLDLADGHLDSMDWLELSSGGPVLSLAPLSTTAPSLFSTDFLDGHDLQLHWDSCL
ACTA2 fold change MKL_S vs. MKL_L (4 h after LPA treatment): <1.20 fold | ADAM21 fold change MKL_S vs. MKL_L (4 h after LPA treatment): +1.65 (2.95E−05) fold | AMBN fold change MKL_S vs. MKL_L (4 h after LPA treatment): +1.67 (1.04E−03) fold | CNN2 fold change MKL_S vs. MKL_L (4 h after LPA treatment): +1.44 (1.06E−06) fold | DSEL fold change MKL_S vs. MKL_L (4 h after LPA treatment): +1.50 (2.87E−04) fold | ESRRG fold change MKL_S vs. MKL_L (4 h after LPA treatment): <1.20 fold | MKL1 (total) fold change MKL_S vs. MKL_L (4 h after LPA treatment): −1.91 (3.79E−06) fold | MMP16 fold change MKL_S vs. MKL_L (4 h after LPA treatment): +2.54 (1.95E−05) fold | NAP1L3 fold change MKL_S vs. MKL_L (4 h after LPA treatment): +1.49 (1.82E−03) fold | OSTN fold change MKL_S vs. MKL_L (4 h after LPA treatment): +1.92 (1.57E−04) fold | PDGFD fold change MKL_S vs. MKL_L (4 h after LPA treatment): <1.20 fold | ROCK1P1 fold change MKL_S vs. MKL_L (4 h after LPA treatment): +1.60 (1.99E−03) fold | RORB fold change MKL_S vs. MKL_L (4 h after LPA treatment): <1.20 fold | SLC8A1 fold change MKL_S vs. MKL_L (4 h after LPA treatment): −1.31 (1.42E−03) fold | SPOCK3 fold change MKL_S vs. MKL_L (4 h after LPA treatment): 2.18 (2.70E−06) fold | ACTA2 fold change MKL_S vs. MKL_L (untreated cells): <1.20 fold | ADAM21 fold change MKL_S vs. MKL_L (untreated cells): <1.20 fold | AMBN fold change MKL_S vs. MKL_L (untreated cells): +1.73 (5.61E−04) fold | CNN2 fold change MKL_S vs. MKL_L (untreated cells): +1.53 (7.48E−06) fold | DSEL fold change MKL_S vs. MKL_L (untreated cells): +1.51 (1.13E−03) fold | ESRRG fold change MKL_S vs. MKL_L (untreated cells): <1.20 fold | MKL1 (total) fold change MKL_S vs. MKL_L (untreated cells): −1.54 (8.11E−08) fold | MMP16 fold change MKL_S vs. MKL_L (untreated cells): +2.03 (9.27E−06) fold | NAP1L3 fold change MKL_S vs. MKL_L (untreated cells): +1.75 (1.30E−04) fold | OSTN fold change MKL_S vs. MKL_L (untreated cells): +1.90 (2.17E−04) fold | PDGFD fold change MKL_S vs. MKL_L (untreated cells): <1.20 fold | ROCK1P1 fold change MKL_S vs. MKL_L (untreated cells): <1.20 fold | RORB fold change MKL_S vs. MKL_L (untreated cells): <1.20 fold | SLC8A1 fold change MKL_S vs. MKL_L (untreated cells): <1.20 fold | SPOCK3 fold change MKL_S vs. MKL_L (untreated cells): +1.97 (6.82E−06) fold | ACTA2 fold change vs. control (4 h after LPA treatment): +2.02 (2.99E−05) fold | ADAM21 fold change vs. control (4 h after LPA treatment): +1.38 (3.69E−06) fold | AMBN fold change vs. control (4 h after LPA treatment): +5.14 (1.97E−07) fold | CNN2 fold change vs. control (4 h after LPA treatment): +1.67 (6.37E−08) fold | DSEL fold change vs. control (4 h after LPA treatment): +2.33 (1.17E−06) fold | ESRRG fold change vs. control (4 h after LPA treatment): +1.93 (4.52E−08) fold | MKL1 (total) fold change vs. control (4 h after LPA treatment): +2.41 (3.56E−07) fold | MMP16 fold change vs. control (4 h after LPA treatment): +5.86 (1.39E−07) fold | NAP1L3 fold change vs. control (4 h after LPA treatment): +2.78 (2.44E−06) fold | OSTN fold change vs. control (4 h after LPA treatment): +2.23 (3.48E−05) fold | PDGFD fold change vs. control (4 h after LPA treatment): +1.61 (8.28E−06) fold | ROCK1P1 fold change vs. control (4 h after LPA treatment): +1.53 (3.63E−03) fold | RORB fold change vs. control (4 h after LPA treatment): +1.46 (1.34E−04) fold | SLC8A1 fold change vs. control (4 h after LPA treatment): +1.67 (1.71E−05) fold | SPOCK3 fold change vs. control (4 h after LPA treatment): +5.04 (8.54E−09) fold | ACTA2 fold change vs. control (untreated cells): +2.30 (1.88E−07) fold | ADAM21 fold change vs. control (untreated cells): −1.21 (1.63E−02) fold | AMBN fold change vs. control (untreated cells): <1.20 fold | CNN2 fold change vs. control (untreated cells): +2.53 (1.91E−08) fold | DSEL fold change vs. control (untreated cells): +2.43 (5.20E−06) fold | ESRRG fold change vs. control (untreated cells): +2.37 (2.34E−08) fold | MKL1 (total) fold change vs. control (untreated cells): +3.70 (1.19E−11) fold | MMP16 fold change vs. control (untreated cells): +2.98 (3.46E−07) fold | NAP1L3 fold change vs. control (untreated cells): +2.68 (1.98E−06) fold | OSTN fold change vs. control (untreated cells): <1.20 fold | PDGFD fold change vs. control (untreated cells): +2.01 (4.75E−05) fold | ROCK1P1 fold change vs. control (untreated cells): <1.20 fold | RORB fold change vs. control (untreated cells): +1.96 (2.76E−07) fold | SLC8A1 fold change vs. control (untreated cells): +1.70 (5.75E−07) fold | SPOCK3 fold change vs. control (untreated cells): +3.21 (1.08E−07) fold

B2: MKL_L: published long isoform of human MKL1 (SEQ ID NO:3), stably overexpressed in EcR-293 cells from construct 5′UTR-MKL_L (protein, listed as Homo sapiens)
chain: LPPSVIAVNGMDGGGAGENDDEPVLVSLSAAPSPQSEAVANELQELSLQPELTLGLHPGRNPNLPPLSERKNVLQLKLQQRRTREELVSQGIMPPLKSPAAFHEQRRSLERARTEDYLKRKIRSRPERSELVRMHILEETSAEPSLQAKQLKLKRARLADDLNEKIAQRPGPMELVEKNILPVESSLKEAIIVGQVNYPKVADSSSFDEDSSDALSPEQPASHESQGSVPSPLEARVSEPLLSATSASPTQVVSQLPMGRDSREMLFLAEQPPLPPPPLLPPSLTNGTTIPTAKSTPTLIKQSQPKSASEKSQRSKKAKELKPKVKKLKYHQYIPPDQKQDRGAPPMDSSYAKILQQQQLFLQLQILNQQQQQHHNYQAILPAPPKSAGEALGSSGTPPVRSLSTTNSSSSSGAPGPCGLARQNSTSLTGKPGALPANLDDMKVAELKQELKLRSLPVSGTKTELIERLRAYQDQISPVPGAPKAPAATSILHKAGEVVVAFPAARLSTGPALVAAGLAPAEVVVATVASSGVVKFGSTGSTPPVSPTPSERSLLSTGDENSTPGDTFGEMVTSPLTQLTLQASPLQILVKEEGPRAGSCCLSPGGRAELEGRDKDQMLQEKDKQIEALTRMLRQKQQLVERLKLQLEQEKRAQQPAPAPAPLGTPVKQENSFSSCQLSQQPLGPAHPFNPSLAAPATNHIDPCAVAPGPPSVVVKQEALQPEPEPVPAPQLLLGPQGPSLIKGVAPPTLITDSTGTHLVLTVTNKNADSPGLSSGSPQQPSSQPGSPAPAPSAQMDLEHPLQPLFGTPTSLLKKEPPGYEEAMSQQPKQQENGSSSQQMDDLFDILIQSGEISADFKEPPSLPGKEKPSPKTVCGSPLAAQPSPSAELPQAAPPPPGSPSLPGRLEDFLESSTGLPLLTSGHDGPEPLSLIDDLHSQMLSSTAILDHPPSPMDTSELHFVPEPSSTMGLDLADGHLDSMDWLELSSGGPVLSLAPLSTTAPSLFSTDFLDGHDLQLHWDSCL
ACTA2 fold change vs. control (4 h after LPA treatment): +1.86 (7.22E−05) fold | ADAM21 fold change vs. control (4 h after LPA treatment): −1.36 (8.44E−04) fold | AMBN fold change vs. control (4 h after LPA treatment): +3.09 (3.65E−06) fold | CNN2 fold change vs. control (4 h after LPA treatment): <1.20 fold | DSEL fold change vs. control (4 h after LPA treatment): +1.56 (1.45E−04) fold | ESRRG fold change vs. control (4 h after LPA treatment): +1.71 (2.20E−07) fold | MKL1 (total) fold change vs. control (4 h after LPA treatment): +4.61 (4.29E−09) fold | MMP16 fold change vs. control (4 h after LPA treatment): +2.30 (4.46E−05) fold | NAP1L3 fold change vs. control (4 h after LPA treatment): +1.86 (1.01E−04) fold | OSTN fold change vs. control (4 h after LPA treatment): <1.20 fold | PDGFD fold change vs. control (4 h after LPA treatment): +1.50 (2.62E−05) fold | ROCK1P1 fold change vs. control (4 h after LPA treatment): <1.20 fold | RORB fold change vs. control (4 h after LPA treatment): +1.53 (5.71E−05) fold | SLC8A1 fold change vs. control (4 h after LPA treatment): +2.18 (6.58E−07) fold | SPOCK3 fold change vs. control (4 h after LPA treatment): +2.31 (1.61E−06) fold | ACTA2 fold change vs. control (untreated cells): +2.62 (5.99E−08) fold | ADAM21 fold change vs. control (untreated cells): −1.27 (1.586−02) fold | AMBN fold change vs. control (untreated cells): −1.89 (2.18E−04) fold | CNN2 fold change vs. control (untreated cells): +1.65 (2.35E−06) fold | DSEL fold change vs. control (untreated cells): +1.61 (4.36E−04) fold | ESRRG fold change vs. control (untreated cells): +2.14 (6.11E−08) fold | MKL1 (total) fold change vs. control (untreated cells): +5.68 (1.23E−12) fold | MMP16 fold change vs. control (untreated cells): +1.47 (6.97E−04) fold | NAP1L3 fold change vs. control (untreated cells): +1.54 (7.53E−04) fold | OSTN fold change vs. control (untreated cells): −2.38 (2.56E−05) fold | PDGFD fold change vs. control (untreated cells): +1.93 (7.54E−05) fold | ROCK1P1 fold change vs. control (untreated cells): <1.20 fold | RORB fold change vs. control (untreated cells): +2.27 (5.80E−08) fold | SLC8A1 fold change vs. control (untreated cells): +1.89 (1.37E−07) fold | SPOCK3 fold change vs. control (untreated cells): +1.63 (7.80E−05) fold
